Experimental findings from article PMC2635920 (Nature structural & molecular biology, 2009) are described below.

T1: Sec39p, full-length (residues 1-709) (S. cerevisiae, UniProt Q12745 1-709)
T1 sequence (looked up): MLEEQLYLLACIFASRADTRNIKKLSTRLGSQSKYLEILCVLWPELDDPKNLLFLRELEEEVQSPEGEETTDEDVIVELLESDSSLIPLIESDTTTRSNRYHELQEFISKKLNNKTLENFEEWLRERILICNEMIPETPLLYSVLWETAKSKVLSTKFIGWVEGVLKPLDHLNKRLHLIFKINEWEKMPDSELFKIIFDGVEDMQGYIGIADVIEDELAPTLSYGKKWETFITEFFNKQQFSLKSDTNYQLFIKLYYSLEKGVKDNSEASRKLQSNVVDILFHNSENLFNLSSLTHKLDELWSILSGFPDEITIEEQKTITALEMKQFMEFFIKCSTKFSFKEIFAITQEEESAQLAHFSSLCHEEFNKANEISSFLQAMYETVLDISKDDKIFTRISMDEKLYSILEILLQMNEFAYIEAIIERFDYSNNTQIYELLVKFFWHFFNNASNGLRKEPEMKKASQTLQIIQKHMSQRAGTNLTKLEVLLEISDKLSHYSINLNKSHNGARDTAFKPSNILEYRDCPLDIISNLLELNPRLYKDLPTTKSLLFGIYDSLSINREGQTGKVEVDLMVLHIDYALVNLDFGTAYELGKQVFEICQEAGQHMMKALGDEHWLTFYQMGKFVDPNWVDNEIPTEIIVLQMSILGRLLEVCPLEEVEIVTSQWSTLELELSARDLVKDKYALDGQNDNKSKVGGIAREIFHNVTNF

T2: Dsl1p, full-length (residues 1-754) (S. cerevisiae, UniProt P53847 1-754)
T2 sequence (looked up): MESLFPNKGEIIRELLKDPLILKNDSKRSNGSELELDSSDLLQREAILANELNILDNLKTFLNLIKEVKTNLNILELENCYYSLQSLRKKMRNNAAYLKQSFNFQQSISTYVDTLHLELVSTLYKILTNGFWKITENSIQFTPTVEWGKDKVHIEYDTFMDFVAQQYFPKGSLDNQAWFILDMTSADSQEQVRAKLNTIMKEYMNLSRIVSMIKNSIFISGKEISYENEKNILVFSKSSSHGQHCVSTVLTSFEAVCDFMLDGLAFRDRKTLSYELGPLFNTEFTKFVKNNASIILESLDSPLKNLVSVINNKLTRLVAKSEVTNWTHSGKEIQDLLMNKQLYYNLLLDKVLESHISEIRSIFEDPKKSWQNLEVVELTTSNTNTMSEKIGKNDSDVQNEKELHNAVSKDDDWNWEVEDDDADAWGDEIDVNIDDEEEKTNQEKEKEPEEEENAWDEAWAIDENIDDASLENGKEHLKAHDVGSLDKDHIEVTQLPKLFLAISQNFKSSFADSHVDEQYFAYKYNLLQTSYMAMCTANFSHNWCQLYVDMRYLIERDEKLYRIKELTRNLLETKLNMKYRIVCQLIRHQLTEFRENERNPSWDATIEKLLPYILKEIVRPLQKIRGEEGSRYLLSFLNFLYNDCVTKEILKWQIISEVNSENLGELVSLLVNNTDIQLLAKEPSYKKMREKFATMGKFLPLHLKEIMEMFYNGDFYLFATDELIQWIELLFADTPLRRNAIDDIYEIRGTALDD

T3: Dsl1p-Sec39p complex (S. cerevisiae, UniProt P53847 1-754; Q12745 1-709)
T3 sequence (looked up) 1: T2 sequence (looked up)
T3 sequence (looked up) 2: T1 sequence (looked up)

T4: Dsl1p residues 37-339, as the C-terminal part of the Tip20p-Dsl1p fusion protein (S. cerevisiae, UniProt P53847 37-339)
T4 sequence (looked up): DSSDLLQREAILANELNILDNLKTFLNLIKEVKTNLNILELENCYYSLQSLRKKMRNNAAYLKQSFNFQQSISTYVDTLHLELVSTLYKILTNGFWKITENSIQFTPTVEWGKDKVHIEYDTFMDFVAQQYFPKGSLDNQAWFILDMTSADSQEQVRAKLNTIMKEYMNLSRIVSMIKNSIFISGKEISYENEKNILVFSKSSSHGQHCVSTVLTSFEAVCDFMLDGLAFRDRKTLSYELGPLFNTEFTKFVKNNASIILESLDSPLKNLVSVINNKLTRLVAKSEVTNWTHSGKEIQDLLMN

B1: Dsl1ΔN (Dsl1p residues 57-754) (domain or fragment, S. cerevisiae, UniProt P53847 57-754, looked up)
chain: NLKTFLNLIKEVKTNLNILELENCYYSLQSLRKKMRNNAAYLKQSFNFQQSISTYVDTLHLELVSTLYKILTNGFWKITENSIQFTPTVEWGKDKVHIEYDTFMDFVAQQYFPKGSLDNQAWFILDMTSADSQEQVRAKLNTIMKEYMNLSRIVSMIKNSIFISGKEISYENEKNILVFSKSSSHGQHCVSTVLTSFEAVCDFMLDGLAFRDRKTLSYELGPLFNTEFTKFVKNNASIILESLDSPLKNLVSVINNKLTRLVAKSEVTNWTHSGKEIQDLLMNKQLYYNLLLDKVLESHISEIRSIFEDPKKSWQNLEVVELTTSNTNTMSEKIGKNDSDVQNEKELHNAVSKDDDWNWEVEDDDADAWGDEIDVNIDDEEEKTNQEKEKEPEEEENAWDEAWAIDENIDDASLENGKEHLKAHDVGSLDKDHIEVTQLPKLFLAISQNFKSSFADSHVDEQYFAYKYNLLQTSYMAMCTANFSHNWCQLYVDMRYLIERDEKLYRIKELTRNLLETKLNMKYRIVCQLIRHQLTEFRENERNPSWDATIEKLLPYILKEIVRPLQKIRGEEGSRYLLSFLNFLYNDCVTKEILKWQIISEVNSENLGELVSLLVNNTDIQLLAKEPSYKKMREKFATMGKFLPLHLKEIMEMFYNGDFYLFATDELIQWIELLFADTPLRRNAIDDIYEIRGTALDD
B2: Dsl1ΔC (L41E) (domain or fragment, S. cerevisiae, UniProt P53847 1-361, looked up)
chain: MESLFPNKGEIIRELLKDPLILKNDSKRSNGSELELDSSDELQREAILANELNILDNLKTFLNLIKEVKTNLNILELENCYYSLQSLRKKMRNNAAYLKQSFNFQQSISTYVDTLHLELVSTLYKILTNGFWKITENSIQFTPTVEWGKDKVHIEYDTFMDFVAQQYFPKGSLDNQAWFILDMTSADSQEQVRAKLNTIMKEYMNLSRIVSMIKNSIFISGKEISYENEKNILVFSKSSSHGQHCVSTVLTSFEAVCDFMLDGLAFRDRKTLSYELGPLFNTEFTKFVKNNASIILESLDSPLKNLVSVINNKLTRLVAKSEVTNWTHSGKEIQDLLMNKQLYYNLLLDKVLESHISEIRS
B3: Tip20p, full-length (residues 1-701) (natural protein, S. cerevisiae, UniProt P33891 1-701, looked up)
chain: MNGIDDLLNINDRIKQVQNERNELASKLQNLKQSLASNDTEVALSEVIAQDIIEVGASVEGLEQLRAKYGDLQILNKLEKVAVQQTQMQAGVDKLDSFERQLDELAEQPPDQFTLDDVKALHSKLTSVFATVPQINNIDSQYAAYNKLKSKVTGKYNDVIIQRLATNWSNTFDQKLLEAQWDTQKFASTSVGLVKCLRENSTKLYQLSLLYLPLEEETQNGDSERPLSRSNNNQEPVLWNFKSLANNFNVRFTYHFHATSSSSKIETYFQFLNDYLAENLYKCINIFHDDCNGLTKPVIHEQFINYVLQPIRDKVRSTLFQNDLKTLIVLISQILATDKNLLNSFHYHGLGLVSLISDEVWEKWINYEVEMANRQFINITKNPEDFPKSSQNFVKLINKIYDYLEPFYDLDFDLLVRYKLMTCSLIFMNLTSSYLDYILTVDSLNETRTKEQELYQTMAKLQHVNFVYRKIKSLSSNFIFIQLTDIVNSTESKKYNSLFQNVENDYEKAMSTDMQNSIVHRIQKLLKETLRNYFKISTWSTLEMSVDENIGPSSVPSAELVNSINVLRRLINKLDSMDIPLAISLKVKNELLNVIVNYFTESILKLNKFNQNGLNQFLHDFKSLSSILSLPSHATNYKCMSLHELVKILKLKYDPNNQQFLNPEYIKTGNFTSLKEAYSIKYLKDTKIQDALYRIIYGNIL
B4: Dsl1ΔN1 (Dsl1p residues 340-754) (domain or fragment, S. cerevisiae, UniProt P53847 340-754, looked up)
chain: KQLYYNLLLDKVLESHISEIRSIFEDPKKSWQNLEVVELTTSNTNTMSEKIGKNDSDVQNEKELHNAVSKDDDWNWEVEDDDADAWGDEIDVNIDDEEEKTNQEKEKEPEEEENAWDEAWAIDENIDDASLENGKEHLKAHDVGSLDKDHIEVTQLPKLFLAISQNFKSSFADSHVDEQYFAYKYNLLQTSYMAMCTANFSHNWCQLYVDMRYLIERDEKLYRIKELTRNLLETKLNMKYRIVCQLIRHQLTEFRENERNPSWDATIEKLLPYILKEIVRPLQKIRGEEGSRYLLSFLNFLYNDCVTKEILKWQIISEVNSENLGELVSLLVNNTDIQLLAKEPSYKKMREKFATMGKFLPLHLKEIMEMFYNGDFYLFATDELIQWIELLFADTPLRRNAIDDIYEIRGTALDD

Assay [1] has as its target T1, Sec39p, full-length (residues 1-709). Briefly: SEC.
In assay [2] the target is B3. The assay can be described thus: SEC.
For assay [3], the target named is T2, Dsl1p, full-length (residues 1-754). The assay can be described thus: SEC. In general terms: Size exclusion chromatography separates by hydrodynamic size, large species first.
A further assay deals with T3, Dsl1p-Sec39p complex. Briefly: SEC.
Assay [4] addresses T4, Dsl1p residues 37-339, as the …. Briefly: crystal structure.

Turning to B1, in assay [1], the binding result was “binds”.

For B2, the binding result in assay [2] is “binds”.

Turning to B3, the binding result (in assay [3]; in the assay with Dsl1p-Sec39p complex) was “binds” in each case.

With B4, the binding result in assay [1] is “binds”.

In the case of MNGIDDLLNINDRIKQVQNERNELASKLQNLKQSLASNDT (domain or fragment, S. cerevisiae, UniProt P33891 1-40, looked up) [Tip20p residues 1-40, as the N-terminal part of the Tip20p-Dsl1p fusion protein], the binding result in assay [4] is given as “binds”.
